Measurements from PMC6771245, “CMKLR1-targeting peptide tracers for PET/MR imaging of breast cancer” (Theranostics, 2019).
Values joined by “and” are separate entries in the source; they are usually repeats but may differ in a detail not shown here. Equal entries are not always repeated. *1 amine or outer side, *2 acyl side, *3 side chain or, on linkers, in order; H or OH if unused. Where a SMILES comes first, the peptide text is derived from it. [ ]: non-standard residue; d: D form. The star is where a group is joined. X1 = O=C(O)CN1CCN(CC(=O)O)CCN(CC(=O)NCCCOCCOCCOCCCN*)CCN(CC(=O)O)CC1; DOTA = O=C(O)CN1CCN(CC(=O)O)CCN(CC(=O)*)CCN(CC(=O)O)CC1; NH(CH2)9CO = O=C(CCCCCCCCCN[*:1])[*:2]; Hyp = O=C(O)[C@@H]1C[C@@H](O)CN1; Tic = O=C(O)[C@@H]1Cc2ccccc2CN1; Cha = N[C@@H](CC1CCCCC1)C(=O)O; Cit = NC(=O)NCCC[C@H](N)C(=O)O; Suc = O=C(CCC(=O)[*:2])[*:1]; Octanoyl = CCCCCCCC(=O)*; Ahx = NCCCCCC(=O)O

Columns and labels:
huCMKLR1 [1] = biological target: T1, huCMKLR1 (Homo sapiens, UniProt Q99788); experiment: Competitive radioligand binding with ^125I-chemerin-9, membranes of HEK293a cells stably expressing huCMKLR1 and Gα16; conditions: unlabeled compound; radioligand ^125I-chemerin-9, 5 µg membrane, 1 h 37 °C; three independent experiments, mean ± SD; read-out: competition binding IC50 w/o ^natGa
T1 construct: expressed in transfected cells; host or cells: HEK293a (membrane preparations)
T1 sequence (Q99788 1-373): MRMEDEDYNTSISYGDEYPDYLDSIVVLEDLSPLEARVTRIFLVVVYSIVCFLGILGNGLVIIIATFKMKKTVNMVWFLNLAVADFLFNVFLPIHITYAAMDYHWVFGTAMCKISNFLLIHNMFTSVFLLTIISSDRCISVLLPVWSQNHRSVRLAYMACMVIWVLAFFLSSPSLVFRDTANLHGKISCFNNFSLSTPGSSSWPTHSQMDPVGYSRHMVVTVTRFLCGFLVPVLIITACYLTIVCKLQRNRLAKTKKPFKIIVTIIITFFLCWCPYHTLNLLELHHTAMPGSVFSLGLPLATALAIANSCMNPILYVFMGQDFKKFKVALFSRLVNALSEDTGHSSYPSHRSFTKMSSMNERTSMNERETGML
Method: (§1) For in vitro analysis, HEK293a stably transfected with huCMKLR1 and Gα16 were used. For the in vivo mouse model, the human breast cancer cell line DU4475 with endogenous CMKLR1 expression and the target-negative human lung carcinoma cell line A549 were used. All cell lines were obtained from ATCC/LGC Standards (Wesel, Germany) and were cultured in RPMI1640 medium containing 10% fetal bovine serum (both from Biochrom, Berlin, Germany) and, in case of transfected cells, selection agents G418 (Biochrom, Berlin, Germany) and zeocin (Invitrogen, Carlsbad, USA).
Competitive binding studies were performed with cell membrane preparations. […] […].
(§2) All statistical analyses were performed using GraphPad Prism 5.04. EC50/IC50 values were determined by nonlinear sigmoidal curve fitting with variable slope setting, and normalized response for competitive binding results. Multiple group comparisons were done by a two-way ANOVA and Bonferroni post hoc test. All presented data are based on independent experiments. Normalizations and statistics are further defined in each figure legend.

huCMKLR1 [2] = biological target: T1, huCMKLR1; experiment: Calcium mobilization assay; format: cell-based; conditions: HEK293a huCMKLR1 Gα16 cells, Fluo-4 AM; three independent experiments, mean ± SD; read-out: Ca^2+ assay EC50
Method: as §1
Optical ViewPlate 96-well microplates (PerkinElmer, Waltham, USA) were coated with poly-D-lysine (10 µg/mL, 50 µL/well) for 30 minutes at 37 °C, washed with PBS and air dried before seeding 40,000 HEK293a huCMKLR1 Gα16 cells per well. The next day, cells were starved with serum-free medium for 30 minutes and incubated with loading medium consisting of serum-free medium with 2.5 mM probenicid (Sigma-Aldrich, St. Louis, USA) and 2 µM Fluo-4 AM (Thermo Fisher Scientific, Waltham, USA). After a loading time of 45 minutes, cells were washed with 100 μL C1 buffer (130 mM NaCl, 5 mM KCl, 10 mM 4-(2-hydroxyethyl)-1-piperazineethanesulfonic acid [HEPES], 2 mM CaCl2, 10 mM glucose) followed by 20 minutes of incubation in the dark. After another washing and incubation cycle, the cell plate was placed into the CellLux Calcium Imaging System (PerkinElmer, Waltham, USA) and the assay was performed automatically according to the following protocol. After a baseline measurement for 30 seconds, the ligands (prepared in C1 buffer with 0.5% BSA in double concentration and pipetted in a U-bottom plate) were added on top of the cells and the fluorescence intensity was recorded for further 60 seconds. Obtained raw data were analyzed using AssayPro (PerkinElmer, Waltham, USA). After spatial uniformity correction, maximum response values (F) were normalized to baseline values (F0) of each well using the following equation:
response = ΔF/F0 = (F - F0)/F0.
as §2

[3] = Determination of LogD7.4 values; format: physicochemical; conditions: shake-flask octanol/PBS pH 7.4; 3 µL of 1 mM solution, 300 µL per phase, vortex 1 min, centrifuged 5 min 10,000 x g; HPLC peak area octanol/buffer, both phases analysed
Method: Compounds (3 µL of a 1 mM solution) were diluted into 300 µL PBS pH 7.4 or octanol and mixed. 300 µL of the other phase was added, followed by vigorous mixing using a vortex shaker for one minute. The two phases were centrifuged (5 min, 10,000 x g). Following separation, 25 µL aliquots were removed for HPLC analysis. LogD7.4 was calculated by taking the logarithm of the ratio of the high-performance liquid chromatography (HPLC) peak area of each compound in octanol to the corresponding peak area in buffer. Consequently, logD7.4 values were based on analysis of both aqueous and octanol fractions.

in vivo = conditions: female, athymic NMRI-Foxn1^nu/Foxn1^nu, mouse, iv, 1 MBq, total radioactivity
Excerpt: (§3) For in vivo experiments, at least 8-week-old female athymic NMRI-Foxn1^nu /Foxn1^nu mice (Janvier Labs, Saint-Berthevin, France) were used. Animal care followed institutional guidelines and all experiments were approved by local animal research authorities. For the generation of tumor xenografts, 5 x 10^6 cells of both DU4475 and A549 cells were inoculated subcutaneously into the right and left shoulder, respectively (1:1 phosphate-buffered saline [PBS]/Matrigel Basement Membrane Matrix High Concentration, Corning, Corning, USA). Part of the animals received SW13 lung cancer cells as a CMKLR1-negative control tumor. For the analysis of biodistribution, only data of […] and A549 xenograft tumors are used. Tumors were allowed to grow for two to four weeks (tumor volume > 100 mm^3) after cell inoculation.
(§4) Radiolabeling of peptide-DOTA conjugates was carried out manually using ^177Lu from ITG Isotope Technologies Garching GmbH (Garching, Germany). A total of 50 µL (stock solution of peptide at 1 µg/µL in 10% DMSO in water) was added to 200 µL of acetate buffer (sodium acetate/acetic acid buffer, 0.4 M, pH 5.0) and 120 µL of gentisic solution prepared by dissolving 50 mg of gentisic acid in 1 mL of acetate buffer. The resulting mixture was then added to 35 µL of ^177Lu (1 GBq in aqueous 0.04 M HCl) and the reaction mixture was heated at 96 °C for 30 minutes followed by cooling for 10 minutes at room temperature. The product was then diluted with 5 mL of saline and used directly for animal experiments.
(§5) Tumor-bearing mice were injected with approximately 10 MBq of ^68Ga-labeled DOTA-peptide or 1 MBq of ^177Lu-labeled DOTA-peptide to the tail vein via a catheter. […] Tumor, blood, stomach, pancreas, small intestine, colon, liver, spleen, kidney, heart, lung, muscle and femur samples were weighed and uptake of radioactivity was measured by a gamma counter. To determine the effect of unlabeled ligand on the tumor uptake, 200 nmol CG34 peptide (100-fold excess) was co-injected.

[4] = system: DU4475/A549 xenograft model; experiment: in vivo; conditions: mouse
Excerpt: as §3, §4, §5

Work on `C[C@@H](NC(=O)[C@H](Cc1ccccc1)NC(=O)[C@H](CCCNC(N)=O)NC(=O)CNC(=O)[C@@H]1C[C@@H](O)CN1C(=O)[C@H](CC1CCCCC1)NC(=O)[C@@H](N)Cc1ccc(O)cc1)C(=O)N1Cc2ccccc2C[C@H]1C(=O)N[C@@H](CO)C(=O)O` [CG34] (H-Y[Cha][Hyp]G[Cit]F[dA][Tic]S-OH) yielded an IC50 (huCMKLR1 [1]) of 1 nM and an EC50 (huCMKLR1 [2]) of 0.4 nM.
Work on `CSCC[C@H](NC(=O)CNC(=O)[C@@H]1CCCN1C(=O)[C@H](CC1CCCCC1)NC(=O)[C@@H](N)Cc1ccc(O)cc1)C(=O)N[C@@H](Cc1ccc(O)cc1)C(=O)N[C@@H](C)C(=O)N[C@@H](Cc1ccccc1)C(=O)N[C@H](Cc1ccccc1)C(=O)O` [CG36] (H-Y[Cha]PGMYAF[dF]-OH) yielded an IC50 (huCMKLR1 [1]) of 0.1 nM and an EC50 (huCMKLR1 [2]) of 0.9 nM.
`C[C@@H](NC(=O)[C@H](Cc1ccccc1)NC(=O)[C@H](CCCNC(N)=O)NC(=O)CNC(=O)[C@@H]1C[C@@H](O)CN1C(=O)[C@H](CC1CCCCC1)NC(=O)[C@H](Cc1ccc(O)cc1)NC(=O)CCCCCCCCCNC(=O)CN1CCN(CC(=O)O)CCN(CC(=O)O)CCN(CC(=O)O)CC1)C(=O)N1Cc2ccccc2C[C@H]1C(=O)N[C@@H](CO)C(=O)O` [DOTA-ADX-CG34] ({DOTA}-[NH(CH2)9CO]Y[Cha][Hyp]G[Cit]F[dA][Tic]S-OH) showed an IC50 (huCMKLR1 [1]) of 0.65 ± 0.15 nM, an EC50 (huCMKLR1 [2]) of 0.65 ± 0.1 nM and a logD [3] of 1.35 ± 0.31.
In the case of `C[C@@H](NC(=O)[C@H](Cc1ccccc1)NC(=O)[C@H](CCCNC(N)=O)NC(=O)CNC(=O)[C@@H]1C[C@@H](O)CN1C(=O)[C@H](CC1CCCCC1)NC(=O)[C@H](Cc1ccc(O)cc1)NC(=O)CCCCCNC(=O)CN1CCN(CC(=O)O)CCN(CC(=O)O)CCN(CC(=O)O)CC1)C(=O)N1Cc2ccccc2C[C@H]1C(=O)N[C@@H](CO)C(=O)O` [DOTA-AHX-CG34] ({DOTA-Ahx}-Y[Cha][Hyp]G[Cit]F[dA][Tic]S-OH), the IC50 (huCMKLR1 [1]) is reported as 1.05 ± 0.81 nM, the EC50 (huCMKLR1 [2]) is reported as 0.79 ± 0.28 nM and the logD [3] is reported as -0.96 ± 0.2.
Molecule `CSCC[C@H](NC(=O)CNC(=O)[C@@H]1CCCN1C(=O)[C@H](CC1CCCCC1)NC(=O)[C@H](Cc1ccc(O)cc1)NC(=O)CCCCCNC(=O)CN1CCN(CC(=O)O)CCN(CC(=O)O)CCN(CC(=O)O)CC1)C(=O)N[C@@H](Cc1ccc(O)cc1)C(=O)N[C@@H](C)C(=O)N[C@@H](Cc1ccccc1)C(=O)N[C@H](Cc1ccccc1)C(=O)O` [DOTA-AHX-CG36] ({DOTA-Ahx}-Y[Cha]PGMYAF[dF]-OH) has an IC50 (huCMKLR1 [1]) of 0.13 ± 0.08 nM, an EC50 (huCMKLR1 [2]) of 1.53 nM and a logD [3] of 2.27 ± 0.47.
With `CCCCCCCC(=O)NCCCC[C@H](NC(=O)CN1CCN(CC(=O)O)CCN(CC(=O)O)CCN(CC(=O)O)CC1)C(=O)N[C@@H](Cc1ccc(O)cc1)C(=O)N[C@@H](CC1CCCCC1)C(=O)N1C[C@H](O)C[C@H]1C(=O)NCC(=O)N[C@@H](CCCNC(N)=O)C(=O)N[C@@H](Cc1ccccc1)C(=O)N[C@H](C)C(=O)N1Cc2ccccc2C[C@H]1C(=O)N[C@@H](CO)C(=O)O` [DOTA-KCap-CG34] ({DOTA}-K(Octanoyl)Y[Cha][Hyp]G[Cit]F[dA][Tic]S-OH) the IC50 (huCMKLR1 [1]) was 0.44 ± 0.16 nM, the EC50 (huCMKLR1 [2]) was 1.34 ± 0.14 nM and the logD [3] was 1.29 ± 0.68.
For `C[C@@H](NC(=O)[C@H](Cc1ccccc1)NC(=O)[C@H](CCCNC(N)=O)NC(=O)CNC(=O)[C@@H]1C[C@@H](O)CN1C(=O)[C@H](CC1CCCCC1)NC(=O)[C@H](Cc1ccc(O)cc1)NC(=O)CCC(=O)NCCCOCCOCCOCCCNC(=O)CN1CCN(CC(=O)O)CCN(CC(=O)O)CCN(CC(=O)O)CC1)C(=O)N1Cc2ccccc2C[C@H]1C(=O)N[C@@H](CO)C(=O)O` [DOTA-TTDS-CG34] ({X1-Suc}-Y[Cha][Hyp]G[Cit]F[dA][Tic]S-OH), the IC50 (huCMKLR1 [1]) was 0.66 nM and ~0.6 nM and the logD [3] was -1.01 ± 0.39.
Molecule `C[C@@H](NC(=O)[C@H](Cc1ccccc1)NC(=O)[C@H](CCCNC(N)=O)NC(=O)CNC(=O)[C@@H]1C[C@@H](O)CN1C(=O)[C@H](CC1CCCCC1)NC(=O)[C@H](Cc1ccc(O)cc1)NC(=O)CCCCCNC(=O)CN1CCN(CC(=O)O)CCN(CC(=O)O)CCN(CC(=O)O)CC1)C(=O)N1Cc2ccccc2C[C@H]1C(=O)N[C@@H](CO)C(=O)O` [[^177Lu]Lu-DOTA-AHX-CG34, metal not drawn] ({DOTA-Ahx}-Y[Cha][Hyp]G[Cit]F[dA][Tic]S-OH) has a tissue uptake at 1 h (in vivo; A549 tumor uptake) of 2.3 %ID/g, a tissue uptake at 24 h (in vivo; A549 tumor uptake) of 0.4 %ID/g and a tissue uptake at 1 h (in vivo; DU4475 tumor uptake) of 3.3 %ID/g. The tissue uptake at 24 h (in vivo; DU4475 tumor uptake) was 2.1 %ID/g, the tissue uptake at 1 h (in vivo; kidneys uptake) was 4.7 %ID/g and the tissue uptake at 24 h (in vivo; kidneys uptake) was 1 %ID/g. The tissue uptake at 1 h (in vivo; lung uptake) was 5.6 %ID/g, the tissue uptake at 1 h (in vivo; spleen uptake) was 5.8 %ID/g and the tissue uptake at 24 h (in vivo; spleen uptake) was 1.7 %ID/g. For the same molecule, the “DU4475 uptake after 24 hours as % of the 1 h-value” [4] was “approx. 64%”, the “decrease of DU4475 tumor signal from one to 24 hours p.i.” value [4] was “approximately 36%” and the “higher uptake in DU4475 than A549” value [4] was 1.4 fold.
